For one substance, inhibition of acidified serum lysis of PNH-like (AET-treated) erythrocytes, IC50 results are on record in patent publication US20250170316A1.

The assay concerns the target complement factor H present in serum (human) (UniProt P08603). Put plainly: cell-based or functional assay.
Sequence of UniProt P08603 (P08603 19-1231 limits assumed): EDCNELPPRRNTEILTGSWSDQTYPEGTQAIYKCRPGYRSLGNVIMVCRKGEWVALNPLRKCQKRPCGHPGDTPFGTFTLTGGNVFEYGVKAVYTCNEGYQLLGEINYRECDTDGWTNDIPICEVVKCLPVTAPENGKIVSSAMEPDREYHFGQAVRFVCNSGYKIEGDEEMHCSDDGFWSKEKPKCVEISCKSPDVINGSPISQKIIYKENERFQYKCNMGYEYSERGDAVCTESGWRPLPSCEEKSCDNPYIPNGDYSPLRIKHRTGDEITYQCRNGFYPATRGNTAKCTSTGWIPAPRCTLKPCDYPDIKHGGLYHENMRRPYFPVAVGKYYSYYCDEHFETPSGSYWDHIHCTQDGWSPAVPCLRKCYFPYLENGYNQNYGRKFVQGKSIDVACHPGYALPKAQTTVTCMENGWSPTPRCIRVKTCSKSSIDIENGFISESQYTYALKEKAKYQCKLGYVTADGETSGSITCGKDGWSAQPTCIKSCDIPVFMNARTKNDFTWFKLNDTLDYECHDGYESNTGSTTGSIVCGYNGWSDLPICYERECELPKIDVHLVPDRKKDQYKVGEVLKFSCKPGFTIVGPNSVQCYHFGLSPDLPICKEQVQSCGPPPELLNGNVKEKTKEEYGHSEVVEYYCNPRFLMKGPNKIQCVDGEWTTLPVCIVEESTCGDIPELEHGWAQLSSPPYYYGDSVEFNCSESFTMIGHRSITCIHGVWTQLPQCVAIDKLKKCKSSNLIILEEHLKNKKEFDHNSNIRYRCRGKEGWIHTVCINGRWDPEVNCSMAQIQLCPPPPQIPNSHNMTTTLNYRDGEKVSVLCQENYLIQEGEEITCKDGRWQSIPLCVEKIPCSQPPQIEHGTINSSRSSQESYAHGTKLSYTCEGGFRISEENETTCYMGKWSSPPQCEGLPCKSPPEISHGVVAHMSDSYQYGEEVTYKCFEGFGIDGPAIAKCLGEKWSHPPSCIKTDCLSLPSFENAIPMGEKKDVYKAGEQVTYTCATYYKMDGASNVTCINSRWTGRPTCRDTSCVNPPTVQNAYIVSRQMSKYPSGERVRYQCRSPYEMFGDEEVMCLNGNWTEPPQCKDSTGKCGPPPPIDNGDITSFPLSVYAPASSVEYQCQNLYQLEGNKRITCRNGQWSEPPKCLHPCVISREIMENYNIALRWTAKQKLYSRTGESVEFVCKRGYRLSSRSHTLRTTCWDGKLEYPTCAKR

On to “PspCN (residues 37-140 of pneumococcal surface protein C, PspC, of Streptococcus pneumoniae strain D39)”, for which the inhibition of acidified serum lysis of PNH-like (AET-treated) erythrocytes, IC50 was 0.027 µM.
